Kd and IC50 data for six sequences are collected here from doi:10.1101/2025.05.09.649859.

Holding throughout (conditions): 25 mM Tris-HCl pH 7.5, 2 mM MgCl2, 100 mM KCl (FP, 21 C) or 100-400 mM KCl (BLI, IgG on Protein A, 25 C)
The test system of series [1] is J2 IgG. The series can be described thus: fluorescence polarization.
Series [2] relates to J2 IgG. The series is described as follows: BLI.
In another series the test system is J2 IgG HC Y54A. The series can be described thus: BLI.
The subject of another series is J2 IgG HC Y50F. The series is described as follows: BLI.
For a further series, the system named is J2 IgG HC Y52F. The series can be described thus: BLI.
Another series has as its system J2 IgG LC Y38F. The series is described as follows: BLI.
In the next series the test system is J2 IgG HC A30P. The series can be described thus: BLI.
The test system of another series is J2 IgG HC Y54F. The series can be described thus: BLI.
For another series, the system named is J2 IgG LC Y31F. The series can be described thus: BLI.
The subject of a further series is J2 IgG LC Y31A. The series is described as follows: BLI.
In series [3] the test system is J2 IgG. The series can be described thus: competition FP.

Sequence “GGCAAGGGUAUCAUGGCGGACGACCGGGGUUCGAACCCCGGAUCCGGCCGUCCGCCGUGAUCCAUGCGGUUACCGCCCGCGUGUCGAACCCAGGUGUGCC [VA-I RNA]” displayed an equilibrium dissociation constant (Kd) in the series with J2 IgG [1] of 32 nM.
In turn, “GUUGUAAAGAAGGUCAAUAUUGUACCAAAC / GUUUGGUACAAUAUUGACCUUCUUUACAAC [30-bp dsRNA]” had a Kd in the series with J2 IgG [2] of 12 nM.
In the case of “GUUGUAAAGAAGGUCAAUAU / AUAUUGACCUUCUUUACAAC [20-bp dsRNA]”, the equilibrium dissociation constant (Kd) with J2 IgG HC Y54A was determined as 300 nM; with J2 IgG HC Y50F it was 430 nM; in the series with J2 IgG HC Y52F it was 220 nM; in the series with J2 IgG LC Y38F it was 150 nM; in the series on J2 IgG HC A30P, 120 nM; in the series with J2 IgG HC Y54F, 710 nM. The dissociation constant (Kd) in the series on J2 IgG LC Y31F is 360 nM; in the series on J2 IgG [2], 120 nM; in the series on J2 IgG LC Y31A, 940 nM.
With “GUUGUAAAGAAGGUCAAUAUUGUACCAAACUUGAUGGAAAAGAACAACGU / ACGUUGUUCUUUUCCAUCAAGUUUGGUACAAUAUUGACCUUCUUUACAAC [50-bp dsRNA]”, the IC50 in the series with J2 IgG [3] turned out to be 17 nM. In the series with J2 IgG [2], this sequence returned a Kd of 22 nM.
Consider “GUUGUAAAGAAGGU / ACCUUCUUUACAAC [14-bp dsRNA]”, for which the Kd in the series with J2 IgG [2] was 2100 nM.
On to “GUUGUAAAGAAGGUCAAUAUUGUACCAAACUUGAUGGAAA / UUUCCAUCAAGUUUGGUACAAUAUUGACCUUCUUUACAAC [40-bp dsRNA]”, for which the Kd with J2 IgG [2] came out at 80 nM.
